According to patent publication US7572600B2, “Enzymatic activities in chemokine-mediated inflammation” (Chemocentryx, Inc., priority 2004, dated 2009):
Like-named read-outs stand apart in the source and are kept apart here. One block for each molecule: values may come before it. Where no end group is shown, it is not given here.

How the values were obtained:
FPRL1 = target: T1, FPRL1 (Homo sapiens, UniProt P25090); test: Receptor signaling (calcium mobilization) in L1.2-FPRL1 cells; assay type: cell-based; set-up: expressed in transfected cells; settings: for Designation and FPRL1 Activity: SHAAGtide and truncated/other variants; for calcium mobilization in the FPRL1 transfectant: L1.2 cells stably expressing human FPRL1, undigested
T1 sequence (P25090 1-351): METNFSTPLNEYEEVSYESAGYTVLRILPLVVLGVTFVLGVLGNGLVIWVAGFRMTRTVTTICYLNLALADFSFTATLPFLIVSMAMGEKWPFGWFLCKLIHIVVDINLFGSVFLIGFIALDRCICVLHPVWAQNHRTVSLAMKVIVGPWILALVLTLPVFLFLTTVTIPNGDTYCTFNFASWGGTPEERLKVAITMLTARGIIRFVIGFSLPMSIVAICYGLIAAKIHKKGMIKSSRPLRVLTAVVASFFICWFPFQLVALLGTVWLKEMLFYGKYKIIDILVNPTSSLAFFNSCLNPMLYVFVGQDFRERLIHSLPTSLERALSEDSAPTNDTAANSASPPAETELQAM
Experimental: (§1) Receptor signaling assay. For individual measurements, cells were loaded for 45 min at room temperature with 2 μM indo-1/AM (Invitrogen, Carlsbad Calif.) in culture medium, then washed with 10 ml PBS and resuspended at 10^6 cells/ml in HBSS containing 0.1% BSA. Cytosolic calcium levels were determined using a Photon Technology International fluorimeter (excitation at 350 nm, ratio of dual emission at 400 and 490 nm). For measuring calcium dose responses, cells were analyzed with a Fluorometric Imaging Plate Reader 384 (FLIPR^384) (Molecular Devices, Sunnyvale, Calif.). Cells were loaded for 1 hr at 37° C. with 5 μM fluo-4 in HBSS with 0.1% BSA, then washed, transferred to black-wall 96-well plates, and subsequently excited at 505 nm with emission recorded at 530 nm with a standard protocol provided by the manufacture. Cells were stimulated with agonists 20 s after the monitoring of fluorescence began. Data were analyzed and plotted in arbitrary units of fluorescence using Prism. To ensure that responses were specific to FPRL1, we utilized a selective small-molecule antagonist of human FPRL1, generated by ChemoCentryx, which was optimized from a high throughput compound library screening approach.
Since FPRL1 has been reported to interact with low affinity and/or potency with a spectrum of potential pathogenic ligands of viral, bacterial and endogenous origin, we performed comparative functional analyses to determine the precise functional domain for the SHAAGtide (FIG. 14). SHAAGtides containing N-terminal and C-terminal truncations and extensions were synthesized, and potencies for receptor signaling in L1.2-FPRL1 cells were tested. […] After removal of the N-terminal amino acid (Met) from SHAAGtide, its potency is reduced approximately 10 fold. Removal of the first two N-terminal amino acids (Met-Leu) totally abolished SHAAGtide's activity on FPRL1. Conversely, removal of the C-terminal three amino residues (AAG) from SHAAGtide had no effect on its activity on FPRL1. Removal of the C-terminal six residues (LSHAAG) reduced the peptide's potency only 3-fold. Many other purported naturally-occurring FPRL1 ligands, including serum amyloid A (SAA), beta-amyloid protein 42, lipoxin A4 and the bacterial tripeptide fMLP were tested.

THP-1 cells = test: THP-1 chemotaxis assay; assay type: cell-based, human; settings: for EC50: THP-1 cells
Experimental: Chemotaxis assay. L1.2-CCR1 transfectants, THP-1 cells, human monocytes and human neutrophils were collected by centrifugation and resuspended in HBSS containing 0.1% BSA. Chemotaxis assays were performed in 96-well ChemoTx® microplates (Neuroprobe, Rockville, Md.) as follows. Chemokines were added to the lower wells (final volume 29 μL), and 20 μL of cell suspension (5×10^6 cells/mL) was added to the polycarbonate filter (3 μm pore size for neutrophils, 5 μm for other 3 cell types). After incubation at 37° C. in the presence of 5% CO2 for 1 hr (neutrophils), 90 min (monocytes) or 2 h (THP-1 and L1.2-CCR1), cells were removed from the upper surface of the filter by scraping. Cells that migrated into the lower chamber were quantified by using the CyQuant cell proliferation assay kit (Molecular Probes, Eugene, Oreg.) and analyzed with a Tecan (Durham, N.C.) fluorimeter (excitation at 480 nm, emission at 530 nm). Data were analyzed and plotted in arbitrary units of fluorescence using Prism (GraphPad Software, San Diego, Calif.).

human neutrophils = test: Calcium mobilization in freshly isolated human neutrophils; assay type: cell-based
Experimental: (§2) Calcium Mobilization Assay. Cells were loaded for 1 hour with 2 μM indo-1/AM dye (Molecular Probes, Eugene, Oreg.) in culture medium, then washed with 10 ml PBS and resuspended at 10^6/ml in HBSS containing 1% FBS. Cytosolic calcium responses were determined using a Photon Technology International (Lawrenceville, N.J.) fluorimeter, with excitation at 350 nm and dual emission at 400 and 490 nm. Alternatively, cells were loaded with 5 μg/ml Fluo-4 AM dye (Molecular Probes, Eugene, Oreg.), then washed and analyzed on a Fluorometric Imaging Plate Reader 384 (FLIPR^384 Molecular Devices, Sunnyvale, Calif.), with 505 nm excitation and 530 nm emission.
as §1

human monocytes = test: Calcium mobilization in freshly isolated human monocytes; assay type: cell-based; settings: undigested chemokine or peptide, 100 nM (CCL23β up to 250 nM)
Experimental: as §2, §1

CCR1 [1] = target: T2, CCR1 (Homo sapiens, UniProt P32246); test: Competition binding with 125I-MIP-1α on human monocytes; set-up: endogenous in cells; host or cells: human CD14+ monocytes from buffy coats
T2 sequence (P32246 1-355): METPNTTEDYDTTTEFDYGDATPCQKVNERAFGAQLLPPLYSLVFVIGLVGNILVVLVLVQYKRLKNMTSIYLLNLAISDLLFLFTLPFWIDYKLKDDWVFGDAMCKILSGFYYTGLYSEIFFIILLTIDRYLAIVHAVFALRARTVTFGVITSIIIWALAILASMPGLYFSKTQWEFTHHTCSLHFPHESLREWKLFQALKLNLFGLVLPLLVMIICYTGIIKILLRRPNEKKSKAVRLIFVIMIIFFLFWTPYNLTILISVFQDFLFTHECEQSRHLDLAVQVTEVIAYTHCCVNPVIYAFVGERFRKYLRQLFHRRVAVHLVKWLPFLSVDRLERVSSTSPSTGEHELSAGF
Experimental: Binding assay. Competition binding studies were conducted using monocytes, L1.2-CCR1 or L1.2-FPRL1 cells. Cells were incubated for 3 hr at 4° C. with ^125I-MIP-1α (final concentration ˜0.05 nM) or ^125I-WKYMVm (final concentration ˜0.01 nM) in buffer (25 mM HEPES, 140 mM NaCl, 1 mM CaCl2, 5 mM MgCl2 and 0.2% BSA, adjusted to pH 7.1) in the presence of increasing amounts of unlabeled chemokine. Reactions were aspirated onto PEI-treated GF/B glass filters using a cell harvester (Packard). Filters were washed twice (25 mM HEPES, 500 mM NaCl, 1 mM CaCl2, 5 mM MgCl2, adjusted to pH 7.1). Scintillant (MicroScint-10; 35 μl) was added to the filters and counted in a Packard Topcount scintillation counter. Data were analyzed and plotted using Prism (GraphPad Software, San Diego, Calif.).

CCR1 [2] = target: T2, CCR1; test: Calcium mobilization in murine L1.2 cells expressing human CCR1; assay type: cell-based; set-up: expressed in transfected cells; host or cells: murine L1.2 cells (G-418 selected transfectant); settings: L1.2-CCR1 cells
Experimental: as §2, §1

[3] = undigested chemokine or peptide (100 nM)
[4] = chemokine after digestion with PMN sup #1, read-out: EC50, chemotaxis
[5] = chemokine after digestion with chymase, read-out: EC50, chemotaxis
[6] = 10 nM input chemokine, after digestion with proteases and fluids
[7] = 10 nM, undigested or recombinant chemokine

Molecule: CCL5/RANTES: traditional CCR1 ligand chemokine
EC50 (THP-1 cells; 2 hr, recombinant undigested chemokine, read-out: EC50, chemotaxis): 0.5 nM | calcium mobilization (human neutrophils; [3]): not

Molecule: 1-42 substrate peptide: synthetic 42-residue peptide consisting of the CCL23β N-terminal (1-24) and SHAAGtide (25-42) domains (MKVSVAALSCLMLVTALGSQARVTKDAETEFMMSKLPLENPV)
calcium mobilization in the FPRL1 transfectant (FPRL1): unable to induce calcium mobilization

B1: CCL3/MIP-1α: traditional CCR1 ligand chemokine; unlabelled homologous competitor in binding (protein)
chain: ADTPTACCFSYTSRQIPQNFIADYFETSSQCSKPGVIFLTKRSRQVCADPSEEWVQKYVSDLELSA
calcium mobilization (human neutrophils; [3]): not and only moderate calcium responses

B2: CCL23β: alternatively spliced form of CCL23, 116-residue protein; recombinant, R&D Systems special order (protein, listed as Homo sapiens)
chain: MKVSVAALSCLMLVTALGSQARVTKDAETEFMMSKLPLENPVLLDMLWRRKIGPQMTLSHAAGFHATSADCCISYTPRSIPCSLLESYFETNSECSKPGVIFLTKKGRRFCANPSDKQVQVCMRMLKLDTRIKTRKN
calcium mobilization (human monocytes): very weak responses | calcium mobilization in the FPRL1 transfectant (FPRL1): unable to induce calcium mobilization | inhibition of 125I-MIP-1α binding (CCR1 [1]): lowest binding activity

B3: CCL15/MIP-1δ: recombinant full-length human chemokine CCL15 (92aa) (protein, listed as Homo sapiens)
chain: QFINDAETELMMSKLPLENPVVLNSFHFAADCCTSYISQSIPCSLMKSYFETSSECSKPGVIFLTKKGRQVCAKPSGPGVQDCMKKLKPYSI
fold increase in chemokine potency after cleavage (THP-1 cells; THP-1 cell migration, cleavage by chymase or synovial fluid): approximately 1000 fold | EC50 (THP-1 cells; after cleavage by chymase or synovial fluid, read-out: EC50, cell migration): 0.05 to 0.06 nM | EC50 (THP-1 cells; [4]): 0.25 nM | EC50 (THP-1 cells; [5]): 0.05 nM | calcium mobilization (human neutrophils; digestions at 30-50 nM): induced calcium mobilization | calcium mobilization (CCR1 [2]; [6]): greater amount of calcium | calcium mobilization (CCR1 [2]; [7]): little calcium mobilization

B4: CCL23/CKβ8: recombinant full-length human chemokine CCL23 (22-120), 99-residue protein (protein, listed as Homo sapiens)
chain: RVTKDAETEFMMSKLPLENPVLLDRFHATSADCCISYTPRSIPCSLLESYFETNSECSKPGVIFLTKKGRRFCANPSDKQVQVCMRMLKLDTRIKTRKN
EC50 (THP-1 cells; [4]): 0.15 nM | EC50 (THP-1 cells; [5]): 0.05 nM | EC50 (THP-1 cells; chemokine after digestion with synovial fluid, read-out: EC50, chemotaxis): 0.25 nM | fold decrease of EC50 by chymase (THP-1 cells; THP-1 chemotaxis): 50 fold | calcium mobilization (human monocytes): strong calcium responses | inhibition of 125I-MIP-1α binding (CCR1 [1]): moderate competitors | calcium mobilization (CCR1 [2]; [6]): uniformly active | calcium mobilization (CCR1 [2]; [7]): either not active or weakly active

B5: CCL15Δ24/LKN-1: recombinant CCL15/MIP-1δ lacking the N-terminal 24 residues (68aa) (protein)
chain: SFHFAADCCTSYISQSIPCSLMKSYFETSSECSKPGVIFLTKKGRQVCAKPSGPGVQDCMKKLKPYSI
calcium mobilization (human neutrophils; [3]): respond | calcium mobilization (human neutrophils; undigested chemokine or peptide (100 nM), listed as CCL15 Δ24/leukotactin): only moderate calcium responses | calcium mobilization (CCR1 [2]; [7]): substantially greater response

Second part, the molecule after the results:

Designation and FPRL1 Activity (FPRL1): Low activity
Molecule: WRRKIGPQMTLSHAAG [CCXP7]

Designation and FPRL1 Activity (FPRL1): High activity
Molecule: MLWRRKIGPQMTLSH [CCXP3]

Designation and FPRL1 Activity (FPRL1): Moderate
Molecule: MLWRRKIGPQMT [CCXP5]

Designation and FPRL1 Activity (FPRL1): Moderate
Molecule: MLWRRKIGPQM [CCXP8]

Designation and FPRL1 Activity (FPRL1): Low activity
Molecule: WRRKIGPQM [CCXP9]

Designation and FPRL1 Activity (FPRL1): High activity
Molecule: MLWRRKIGPQMTLSHAAY [CCXP6]

Designation and FPRL1 Activity (FPRL1): Moderate
Molecule: LWRRKIGPQMTLSH [CCXP11]

Designation and FPRL1 Activity (FPRL1): Low activity
Molecule: IGPQMTLSHAAG [CCXP4]

Designation and FPRL1 Activity (FPRL1): Low activity
Molecule: RRKIGPQMTLSHAAG [CCXP2]

Designation and FPRL1 Activity (FPRL1): Low activity
Molecule: WRRKIG [CCXP10]
